# Paper PMC13385800 (2026)
# B1: TBLR1-LgBiT wild type [not stated] / SETD5-SmBiT [not stated] (parent complex)
# chain 1: MSISSDEVNFLVYRYLQESGFSHSAFTFGIESHISQSNINGALVPPAALISIIQKGLQYVEAEVSINEDGTLFDGRPIESLSLIDAVMPDVVQTRQQAYRDKLAQQQAAAAAAAAAAASQQGSAKNGENTANGEENGAHTIANNHTDMMEVDGDVEIPPNKAVVLRGHESEVFICAWNPVSDLLASGSGDSTARIWNLSENSTSGSTQLVLRHCIREGGQDVPSNKDVTSLDWNSEGTLLATGSYDGFARIWTKDGNLASTLGQHKGPIFALKWNKKGNFILSAGVDKTTIIWDAHTGEAKQQFPFHSAPALDVDWQSNNTFASCSTDMCIHVCKLGQDRPIKTFQGHTNEVNAIKWDPTGNLLASCSDDMTLKIWSMKQDNCVHDLQAHNKEIYTIKWSPTGPGTNNPNANLMLASASFDSTVRLWDVDRGICIHTLTKHQEPVYSVAFSPDGRYLASGSFDKCVHIWNTQTGALVHSYRGTGGIFEVCWNAAGDKVGASASDGSVCVLDLRK
# chain 2: MSIAIPLGVTTSDTSYSDMAAGSDPESVEASPAVNEKSVYSTHNYGTTQRHGCRGLPYATIIPRSDLNGLPSPVEERCGDSPNSEGETVPTWCPCGLSQDGFLLNCDKCRGMSRGKVIRLHRRKQDNISGGDSSATESWDEELSPSTVLYTATQHTPTSITLTVRRTKPKKRKKSPEKGRAAPKTKKIKNSPSEAQNLDENTTEGWENRIRLWTDQYEEAFTNQYSADVQNALEQHLHSSKEFVGKPTILDTINKTELACNNTVIGSQMQLQLGRVTRVQKHRKILRAARDLALDTLIIEYRGKVMLRQQFEVNGHFFKKPYPFVLFYSKFNGVEMCVDARTFGNDARFIRRSCTPNAEVRHMIADGMIHLCIYAVSAITKDAEVTIAFDYEYSNCNYKVDCACHKGNRNCPIQKRNPNATELPLLPPPPSLPTIGAETRRRKARRKELEMEQQNEASEENNDQQSQEVPEKVTVSSDHEEVDNPEEKPEEEKEEVIDDQENLAHSRRTREDRKVEAIMHAFENLEKRKKRRDQPLEQSNSDVEITTTTSETPVGEETKTEAPESEVSNSVSNVTIPSTPQSVGVNTRRSSQAGDIAAEKLVPKPPPAKPSRPRPKSRISRYRTSSAQRLKRQKQANAQQAELSQAALEEGGSNSLVTPTEAGSLDSSGENRPLTGSDPTVVSITGSHVNRAASKYPKTKKYLVTEWLNDKAEKQECPVECPLRITTDPTVLATTLNMLPGLIHSPLICTTPKHYIRFGSPFIPERRRRPLLPDGTFSSCKKRWIKQALEEGMTQTSSVPQETRTQHLYQSNENSSSSSICKDNADLLSPLKKWKSRYLMEQNVTKLLRPLSPVTPPPPNSGSKSPQLATPGSSHPGEEECRNGYSLMFSPVTSLTTASRCNTPLQFELCHRKDLDLAKVGYLDSNTNSCADRPSLLNSGHSDLAPHPSLGPTSETGFPSRSGDGHQTLVRNSDQAFRTEFNLMYAYSPLNAMPRADGLYRGSPLVGDRKPLHLDGGYCSPAEGFSSRYEHGLMKDLSRGSLSPGGERACEGVPSAPQNPPQRKKVSLLEYRKRKQEAKENSAGGGGDSAQSKSKSAGAGQGSSNSVSDTGAHGVQGSSARTPSSPHKKFSPSHSSMSHLEAVSPSDSRGTSSSHCRPQENISSRWMVPTSVERLREGGSIPKVLRSSVRVAQKGEPSPTWESNITEKDSDPADGEGPETLSSALSKGATVYSPSRYSYQLLQCDSPRTESQSLLQQSSSPFRGHPTQSPGYSYRTTALRPGNPPSHGSSESSLSSTSYSSPAHPVSTDSLAPFTGTPGYFSSQPHSGNSTGSNLPRRSCPSSAASPTLQGPSDSPTSDSVSQSSTGTLSSTSFPQNSRSSLPSDLRTISLPSAGQSAVYQASRVSAVSNSQHYPHRGSGGVHQYRLQPLQGSGVKTQTGLS
# Variants of: B1
# Experiment: NanoLuc complementation assay; n = 6–7 independent transfections per TBLR1 mutant; read off a plot
row,ratio to parent,Variant
1,~1.3,chain 1 MSISSDEVNFLVYRYLQESGFSHSAFTFGIESHISQSNINGALVPPAALISIIQKGLQYVEAEVSINEDGTLFDGRPIESLSLIDAVMPDVVQTRQQAYRDKLAQQQAAAAAAAAAAASQQGSAKNGENTANGEENGAHTIANNHTDMMEVDGDVEIPPNKAVVLRGHESEVFICAWNPVSDLLASGSGDSTARIWNLSENSTSGSTQLVLRHCIREGGQDVPSNKDVTSLDWNSEGTLLATGSYDGFARIWTKDGNLASTLGQHKGPIFALKWNKKGNFILSAGVDKTTIIWDAHTGEAKQQFPFHSAPALDVDWQSNNTFASCSTDMCIHVCKLGQDRPIKTFQGHTNEVNAIKWDPTGNLLASCSDDMTLKIWSMKQDNCVHDLQAHNKEIYTIKWSPTGPGTNNPNANLMLASASFDSTVRLWDVDRGICIHTLTKHQEPVCSVAFSPDGRYLASGSFDKCVHIWNTQTGALVHSYRGTGGIFEVCWNAAGDKVGASASDGSVCVLDLRK [chain 1 Y446C]
2,~0.7,chain 1 MSISSDEVNFLVYRYLQESGFSHSAFTFGIESHISQSNINGALVPPAALISIIQKGLQYVEAEVSINEDGTLFDGRPIESLSLIDAVMPDVVQTRQQAYRDKLAQQQAAAAAAAAAAASQQGSAKNGENTANGEENGAHTIANNHTDMMEVDGDVEIPPNKAVVLRGHESEVFICAWNPVSDLLASGSGDSTARIWNLSENSTSGSTQLVLRHCIREGGQDVPSNKDVTSLDWNSEGTLLATGSYDGFARIWTKDGNLASTLGQHKGPIFALKWNKKGNFILSAGVDKTTIIWDAHTGEAKQQFPFHSAPALDVDWQSNNTFASCSTDMCIHVCKLGQDRPIKTFQGHTNEVNAIKWDPTGNLLASCSDDMTLKIWSMKQDNCVHDLQAHNKEIYTIKWSPTGPGTNNPNANLMLASASFDSTVRLWDVDRGICIHTLTKHQERVYSVAFSPDGRYLASGSFDKCVHIWNTQTGALVHSYRGTGGIFEVCWNAAGDKVGASASDGSVCVLDLRK [chain 1 P444R]

# Continued, variant first:
row,Variant,ratio to parent
1,chain 1 MSISSDEVNFLVYRYLQESGFSHSAFTFGIESHISQSNINGALVPPAALISIIQKGLQYVEAEVSINEDGTLFDGRPIESLSLIDAVMPDVVQTRQQAYRDKLAQQQAAAAAAAAAAASQQGSAKNGENTANGEENGAHTIANNHTDMMEVDGDVEIPPNKAVVLRGHESEVFICAWNPVSDLLASGSGDSTARIWNLSENSTSGSTQLVLRHCIREGGQDVPSNKDVTSLDWNSEGTLLATGSYDGFARIWTKDGNLASTLGQHKGPIFALKWNKKGNFILSAGVDKTTIIWDAHTGEAKQQFPFHSAPALDVDWQSNNTFASCSTDMCIHVCKLGQDRPIKTFQGHTNEVNAIKWDPTGNLLASCSDDMTLKIWSMKQDNCVHDLQAHNKEIYTIKWSPTGPGTNNPNANLMLARASFDSTVRLWDVDRGICIHTLTKHQEPVYSVAFSPDGRYLASGSFDKCVHIWNTQTGALVHSYRGTGGIFEVCWNAAGDKVGASASDGSVCVLDLRK [chain 1 S417R],~0.06
2,chain 1 MSISSDEVNFLVYRYLQESGFSHSAFTFGIESHISQSNINGALVPPAALISIIQKGLQYVEAEVSINEDGTLFDGRPIESLSLIDAVMPDVVQTRQQAYRDKLAQQQAAAAAAAAAAASQQGSAKNGENTANGEENGAHTIANNHTDMMEVDGDVEIPPNKAVVLRGHESEVFICAWNPVSDLLASGSGDSTARIWNLSENSTSGSTQLVLRHCIREGGQDVPSNKDVTSLDWNSEGTLLATGSYDGFARIWTKDGNLASTLGQHKGPIFALKWNKKGNFILSAGVDKTTIIWDAHTGEAKQQFPFHSAPALDVDWQSNNSFASCSTDMCIHVCKLGQDRPIKTFQGHTNEVNAIKWDPTGNLLASCSDDMTLKIWSMKQDNCVHDLQAHNKEIYTIKWSPTGPGTNNPNANLMLASASFDSTVRLWDVDRGICIHTLTKHQEPVYSVAFSPDGRYLASGSFDKCVHIWNTQTGALVHSYRGTGGIFEVCWNAAGDKVGASASDGSVCVLDLRK [chain 1 T321S],~1.1
3,chain 1 MSISSDEVNFLVYRYLQESGFSHSAFTFGIESHISQSNINGALVPPAALISIIQKGLQYVEAEVSINEDGTLFDGRPIESLSLIDAVMPDVVQTRQQAYRDKLAQQQAAAAAAAAAAASQQGSAKNGENTANGEENGAHTIANNHTDMMEVDGDVEIPPNKAVVLRGHESEVFICAWNPVSDLLASGSGDSTARIWNLSENSTSGSTQLVLRHCIREGGQDVPSNKDVTSLDWNSEGTLLATGSYDGFARIWTKDGNLASTLGQHKGPILALKWNKKGNFILSAGVDKTTIIWDAHTGEAKQQFPFHSAPALDVDWQSNNTFASCSTDMCIHVCKLGQDRPIKTFQGHTNEVNAIKWDPTGNLLASCSDDMTLKIWSMKQDNCVHDLQAHNKEIYTIKWSPTGPGTNNPNANLMLASASFDSTVRLWDVDRGICIHTLTKHQEPVYSVAFSPDGRYLASGSFDKCVHIWNTQTGALVHSYRGTGGIFEVCWNAAGDKVGASASDGSVCVLDLRK [chain 1 F270L],~1.8
4,chain 1 MSISSDEVNFLVYRYLQESGFSHSAFTFGIESHISQSNINGALVPPAALISIIQKGLQYVEAEVSINEDGTLFDGRPIESLSLIDAVMPDVVQTRQQAYRDKLAQQQAAAAAAAAAAASQQGSAKNGENTANGEENGAHTIANNHTDMMEVDGDVEIPPNKAVVLRGHESEVFICAWNPVSDLLASGSGDSTARIWNLSENSTSGSTQLVLRHCIREGGQDVPSNKDVTSLDWNSEGTLLATGSYDGFARIWTKDGNLASTLGQHKGPIFALKWNKKGNFILSAGVDKTTIIWDAHTGEAKQQFPFHSAPALDVDWQSNNTFASCSTHMCIHVCKLGQDRPIKTFQGHTNEVNAIKWDPTGNLLASCSDDMTLKIWSMKQDNCVHDLQAHNKEIYTIKWSPTGPGTNNPNANLMLASASFDSTVRLWDVDRGICIHTLTKHQEPVYSVAFSPDGRYLASGSFDKCVHIWNTQTGALVHSYRGTGGIFEVCWNAAGDKVGASASDGSVCVLDLRK [chain 1 D328H],~0.55
